Assay results as given in article PMC8428117, “Y chromosomal noncoding RNAs regulate autosomal gene expression via piRNAs in mouse testis”.

Target: MIWI (mouse homologue of PIWI) (UniProt Q9JMB7 1-862)
Test: EMSA; shift abolished by MIWI antibody, not by Argonaute 3 antibody; competed by cold piR1; 20 mM HEPES (pH not stated), 3 mM MgCl2, 40 mM KCl, 5% glycerol, 2 mM DTT, 4 U RNase inhibitor; 5 ug MIWI in 25 ul; on ice, 30 min with probe (competitor/antibody 1 h before); 5% native PAGE
Details: protein: recombinant; tags: FLAG; label: 32P end label

Chain of MIWI (mouse homologue of PIWI) (Q9JMB7 whole entry): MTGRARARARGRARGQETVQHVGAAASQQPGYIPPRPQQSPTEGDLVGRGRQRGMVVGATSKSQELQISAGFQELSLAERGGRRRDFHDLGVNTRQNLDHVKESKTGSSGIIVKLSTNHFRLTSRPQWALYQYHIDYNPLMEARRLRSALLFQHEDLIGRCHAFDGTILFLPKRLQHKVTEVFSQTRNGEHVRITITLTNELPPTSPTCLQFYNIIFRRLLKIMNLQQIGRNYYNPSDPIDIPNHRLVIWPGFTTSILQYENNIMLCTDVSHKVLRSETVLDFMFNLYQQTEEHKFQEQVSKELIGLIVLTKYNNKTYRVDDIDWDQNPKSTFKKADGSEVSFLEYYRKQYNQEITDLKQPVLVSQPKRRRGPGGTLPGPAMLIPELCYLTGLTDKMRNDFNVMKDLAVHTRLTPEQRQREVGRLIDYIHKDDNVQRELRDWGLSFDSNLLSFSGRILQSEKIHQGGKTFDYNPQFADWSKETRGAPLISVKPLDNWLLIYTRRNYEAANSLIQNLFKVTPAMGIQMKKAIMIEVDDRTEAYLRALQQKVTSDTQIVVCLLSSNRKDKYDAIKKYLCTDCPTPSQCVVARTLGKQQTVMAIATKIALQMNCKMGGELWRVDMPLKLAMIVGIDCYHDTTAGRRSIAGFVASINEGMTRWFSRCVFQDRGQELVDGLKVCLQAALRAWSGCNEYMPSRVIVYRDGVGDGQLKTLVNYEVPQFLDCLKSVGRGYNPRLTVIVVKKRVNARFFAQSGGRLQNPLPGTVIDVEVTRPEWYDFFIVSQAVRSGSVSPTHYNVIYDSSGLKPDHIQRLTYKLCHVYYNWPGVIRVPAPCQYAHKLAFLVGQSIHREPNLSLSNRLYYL

Row | Binder | binding result
1 | GAAGCAGAUGAGUAUAUG (ssRNA) [Sod oligo (FJ541118)] | binds
2 | UCAUUGGACAUAAACUGAAUUUUCCA (ssRNA) [spot A4 oligo (FJ541077)] | binds
